The text below walks through data of patent US20230399385A1 (NANJING VAZYME BIOTECH, published 2023).

The Kd is the equilibrium constant for the complex coming apart. Broadly, the EC50 is the concentration that produces a half-maximal response. Read a high EC50 as weaker potency. In general, IC50 refers to the midpoint of a concentration-inhibition curve.

The target in test [1] is T1, SARS-CoV-2 RBD (receptor binding domain of the spike protein of SARS-CoV-2; Vazyme Biotech) (SARS-CoV-2, UniProt P0DTC2 319-541). Put plainly: biolayer interferometry, ForteBio Octet RED96e, RBD 100 nM to 3.13 nM, 1:1 Langmuir model. In general terms: Biolayer interferometry detects binding as a change in optical thickness at a sensor tip.
Test [2] deals with T1, SARS-CoV-2 RBD (receptor binding domain …). Description: ELISA: SARS-CoV-2 RBD coated on the plate, Antibody 5-10 titrated, detected with anti-human IgG-HRP/TMB, OD450. A general note: An ELISA detects its analyte on a solid surface through an enzyme-linked reagent.
Test [3] addresses SARS-CoV-2 spike (S) glycoprotein, wild-type, on pseudotyped virus (SARS-CoV-2, UniProt P0DTC2 14-1273). Put plainly: cell-based or functional assay.
For test [4], the target named is T1, SARS-CoV-2 RBD (receptor binding domain …). Description: method not stated in this sentence (summary of Example 1); biolayer interferometry in Example 2.
Test [5] shares this target. Description: HTRF ACE2/RBD binding assay (665/620 ratio): Antibody 5-10 titrated, blocked ligand ACE2. A general note: Time-resolved FRET reads energy transfer from a long-lived donor to a nearby acceptor.

B1: Antibody 5-10 (antibody, V domains shown)
VH: EVQLLESGGGLVQPGGSLRLSCAASGFTFSSYAMSWVRQAPGKGLEWVSAIVGSGGSTYYADSVKGRFIISRDNSKNTLYLQMNSLRAEDTAVYYCAKSLIYGHYDILTGAYYFDYWGQGTLVTVSS
VL: DIQMTQSPSSVSASVGDRVTIPCRASQGIGNWLAWYQQKPGKAPKLLIYAASSLQSGVPSRFSGSGSGTDFTLTISSLQPEDFATYYCQQANSFPPFGQGTRLEIK
notes: also called anti-SARS-CoV-2 RBD Antibody 5-10; monoclonal Antibody 5-10
For the molecule B1, the Kd in test [1] stood at 4.32 nM; in test [4], 4.31 nM. Besides, the EC50 in test [2] was 0.0269 µg/mL. Further, the “IC50, neutralizing effects on SARS-CoV-2 pseudovirus” value in test [3] stood at 0.0425 µg/mL. In test [5], the IC50 was 0.231 µg/mL.
